Test results as given in patent US12637513B2, “Method of treating cancer by administering an inhibitor of erythropoietin receptor activity comprising either erythropoietin receptor or erythropoietin protein” (ImmunEdge, Inc., priority 2022, dated 2026).

Assays:
[1] = biological target: T1, 293T/EPOR/CD131 cells (Homo sapiens, UniProt P19235); test: Staining of 293T/EPOR/CD131 cells with purified antibodies; type: binding
T1 construct: expressed in transfected cells; host or cells: 293T cells, lentiviral transduction
T1 sequence (P19235 25-508): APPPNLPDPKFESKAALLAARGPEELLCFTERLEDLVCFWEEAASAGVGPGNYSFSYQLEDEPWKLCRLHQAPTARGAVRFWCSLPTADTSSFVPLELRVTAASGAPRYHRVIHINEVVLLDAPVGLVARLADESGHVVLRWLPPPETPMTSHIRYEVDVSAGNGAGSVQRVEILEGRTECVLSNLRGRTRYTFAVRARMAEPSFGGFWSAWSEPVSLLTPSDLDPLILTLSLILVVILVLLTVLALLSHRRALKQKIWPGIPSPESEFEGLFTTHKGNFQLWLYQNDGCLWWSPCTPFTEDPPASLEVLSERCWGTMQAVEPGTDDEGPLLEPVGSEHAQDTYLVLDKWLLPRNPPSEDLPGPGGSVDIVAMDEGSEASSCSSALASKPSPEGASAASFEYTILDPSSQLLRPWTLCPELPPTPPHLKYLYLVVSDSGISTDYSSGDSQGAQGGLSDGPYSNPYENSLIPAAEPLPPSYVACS
Procedure: (§1) The purified antibodies were used to stain the human leukemia UT-7 cells, 293T/EPOR, 293T/CD131, and 293T/EPOR/CD131 cells to confirm antigen binding. The UT-7 cells were maintained in Roswell Park Memorial Institute (RPMI) with 10% Fetal Bovine Serum (FBS) and 5 ng/ml of recombinant human GM-CSF (Peprotech®, Cat #300-03). The 293T cells expressing hEPOR, hCD131, or both were maintained in Dulbecco's Modified Eagle Medium (DMEM) with 10% FBS. 1×10^6 cells/ml were incubated with purified hybridoma clones M2 and M41 at a 3-fold dilution series starting from 20 μg/ml for 30 minutes at 4° C. After washing, the cells were incubated with PE labeled secondary antibody and subjected to flowcytometric analysis. […] The binding profiles of the 293T/EPOR/CD131 cells are similar except the peak MFIs around 1500, half of that of the 293T/EPOR cells (FIG. 29B).

[2] = biological target: T2, 293T/EPOR cells (Homo sapiens, UniProt P19235); test: Staining of 293T/EPOR cells with purified antibodies (flow cytometry); type: binding
T2 construct: expressed in transfected cells; host or cells: 293T cells expressing hEPOR
T2 sequence (P19235 25-508): T1 sequence (P19235 25-508)
Procedure: as §1

[3] = biological target: T3, EPOR-Fc (Homo sapiens, UniProt P19235); test: Bio-layer interferometry (Octet) binding of hybridoma antibodies to EPOR-Fc; details: hybridoma supernatants; 30 nM soluble receptor
T3 construct: The extracellular domains of EPOR or CD131 are produced as soluble Fc fusion proteins; purchased Sino Biological 10707-H02H
T3 sequence (P19235 25-250 limits assumed): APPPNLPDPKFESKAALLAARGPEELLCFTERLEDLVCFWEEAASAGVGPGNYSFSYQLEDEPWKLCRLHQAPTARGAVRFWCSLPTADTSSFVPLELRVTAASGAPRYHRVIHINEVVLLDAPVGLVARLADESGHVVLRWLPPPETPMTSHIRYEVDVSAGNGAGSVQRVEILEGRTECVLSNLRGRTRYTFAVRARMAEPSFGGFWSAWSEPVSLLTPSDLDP
Excerpt: The B cells from ATX-GK mice were fused with mouse myeloma cells to generate hybridoma. The hybridoma cells were screened twice. In the first screening, 293 cells expressing human EPOR, human CD131, or both were used as the primary screen. 87 hybridoma antibodies have been isolated by positive staining on 293T cells expressing human EPOR (hEPOR), human CD131 (hCD131), or both, with the hybridoma supernatants (Table 11 and FIG. 17). Expression of EPOR and CD131 was confirmed by flow cytometry with Phycoerythrin (PE)-labeled anti-EPOR (R&D Systems, Cat #FAB307P) and Alexa Fluor® 647 (AF647)-labeled anti-CD131 (BD Biosciences, Cat #564191), respectively (FIG. 28B). All hybridoma clones were purified and sequenced. Binding kinetics with soluble hetero-EPOR (EPOR-CD131-Fc), soluble EPO receptor subunit of hetero-EPOR (EPOR-Fc), and soluble CD131 subunit of hetero-EPOR (CD131-Fc) were measured using bio-layer interferometry (Octet®) by capturing the hybridoma antibodies in the supernatants on biosensors coated with anti-mouse Fc first and dipping the biosensors into the solutions containing 30 nM of the soluble receptor Fc fusion proteins. The supernatants were also used to block the interaction between EPO and EPOR. The soluble EPOR-CD131-Fc was first captured on biosensors coated with anti-human Fc and then dipped into 10 nM of EPO with or without the hybridoma supernatants. […]

[4] = biological target: T4, EPOR (UT-7 cells) (Homo sapiens, UniProt P19235); test: Flow-based phosphorylated Stat5 assay, blocking by anti-EPOR antibodies; type: cell-based; details: 20 μg/ml antibody; 0.1 μg/ml recombinant human EPO
T4 construct: endogenous in cells; host or cells: UT-7 human leukemia cells
T4 sequence (P19235 25-508): T1 sequence (P19235 25-508)
Procedure: EPOR activation leads to phosphorylation of Stat5. A flow-based assay on phosphorylated Stat5 was set up to test the blocking activities of anti-EPOR antibodies. The UT-7 cells were cultured without GM-CSF for overnight before the EPO stimulation. 3×10^6 cells/ml were incubated with 20 μg/ml of anti-EPOR for 15 minutes before stimulation with 0.1 μg/ml of recombinant human EPO (Peprotech®, Cat #100-64) for 10 minutes at 37° C. The cells were fixed immediately with fixation buffer (Cytofix™ buffer; BD Biosciences, Cat #554655) and permeabilized with methanol. After washing, cells were stained with PE labeled anti-Stat5 (BD Biosciences, Cat #612567) and subjected to flow cytometry analysis.

[5] = biological target: T5, UT-7 cells (Homo sapiens, UniProt P19235); test: Staining of UT-7 cells with purified antibodies; type: binding
T5 construct: endogenous in cells; host or cells: UT-7 human leukemia cells
T5 sequence (P19235 25-508): T1 sequence (P19235 25-508)
Procedure: as §1

B1: EPORab - M2: hybridoma antibody clone, VH/VK in Table 10 (antibody, V domains shown)
VH: QVQLVESGGGLVKPGGSLRLSCAASGFTFSDSYMSWIRQAPGKGLEWVSYISNSGSYMYYADSVKGRFTISRDNAKNSLYLQMNNLRAEDTAVYYCARDKLGIGDYWGQGTLVTVSS
VL: DIQMTQSPSSLSASVGDRVTITCRASQGIRNDLGWFQQKPGKAPKRLIYAASRLQSGVPSRFSGSGSGTEFTLTISSLQPEDFATYCCLQHHTYPPTFGQGTKVEIK
[1]
  peak MFI: around 1500
[2]; 27 ng/ml purified antibody, 293T/EPOR cells
  mean or median fluorescence intensity (MFI): ~100%
[2]; 20 μg/ml purified antibody
  binding to 293T/EPOR cells: robust binding activities
[3]
  binding to EPOR-Fc: potent binding
[4]
  blocking of Stat5 phosphorylation: complete blocking
[5]
  MFI: ~18,000
